Experiment [1] concerns the target T1, Recombinant Human IL-1β (human, UniProt P01584 117-269).
T1 construct: also called IL-1b; IL-1B
Nature of the experiment: direct bind ELISA.

A further experiment concerns the target T2, IL-1α (UniProt P01583 113-271).
T2 construct: also called IL-1alpha; IL-1a
T2 sequence (looked up): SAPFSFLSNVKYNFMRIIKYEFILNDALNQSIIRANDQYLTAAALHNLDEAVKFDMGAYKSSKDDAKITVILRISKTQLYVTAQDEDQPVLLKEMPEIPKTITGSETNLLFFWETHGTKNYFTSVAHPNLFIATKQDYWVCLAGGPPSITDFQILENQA
Nature of the experiment: direct bind ELISA.

The target in experiment [2] is T1, Recombinant Human IL-1β. Kind of experiment: Biacore SPR. On the procedure:
(§1) The BIACORE assay (Biacore, Inc, Piscataway, N.J.) determines the affinity of antibodies or DVD-Ig with kinetic measurements of on-rate and off-rate constants. Binding of antibodies or DVD-Ig to a target antigen (for example, a purified recombinant target antigen) is determined by surface plasmon resonance-based measurements with a BiacoreR 1000 or 3000 instrument (Biacore® AB, Uppsala, Sweden) using running HBS-EP (10 mM HEPES [pH 7.4], 150 mM NaCl, 3 mM EDTA, and 0.005% surfactant P20) at 25° C. All chemicals are obtained from Biacore® AB (Uppsala, Sweden) or otherwise from a different source as described in the text. For example, approximately 5000 RU of goat anti-mouse IgG, (Fcγ), fragment specific polyclonal antibody (Pierce Biotechnology Inc, Rockford, Ill.) diluted in 10 mM sodium acetate (pH 4.5) is directly immobilized across a CM5 research grade biosensor chip using a standard amine coupling kit according to manufacturer's instructions and procedures at 25 μg/ml. Unreacted moieties on the biosensor surface are blocked with ethanolamine. Modified carboxymethyl dextran surface in flowcell 2 and 4 is used as a reaction surface. Unmodified carboxymethyl dextran without goat anti-mouse IgG in flow cell 1 and 3 is used as the reference surface. For kinetic analysis, rate equations derived from the 1:1 Langmuir binding model are fitted simultaneously to association and dissociation phases of all eight injections (using global fit analysis) with the use of Biaevaluation 4.0.1 software. Purified antibodies or DVD-Ig are diluted in HEPES-buffered saline for capture across goat anti-mouse IgG specific reaction surfaces. Antibodies or DVD-Ig to be captured as a ligand (25 μg/ml) are injected over reaction matrices at a flow rate of 5 μl/min. The association and dissociation rate constants, kₒₙ (M⁻¹s⁻¹) and koff (s⁻¹) are determined under a continuous flow rate of 25 μl/min. Rate constants are derived by making kinetic binding measurements at different antigen concentrations ranging from […]. The equilibrium dissociation constant (M) of the reaction between antibodies or DVD-Igs and the target antigen is then calculated from the kinetic rate constants by the following formula: KD=koff/kₒₙ. Binding is recorded as a function of time and kinetic rate constants are calculated.
On the technique in general: SPR reads the build-up and loss of mass on a sensor chip optically.

For experiment [3], the target named is T1, Recombinant Human IL-1β. Kind of experiment: direct bind ELISA. On the procedure: (§2) Enzyme Linked Immunosorbent Assays to screen for antibodies that bind a desired target antigen were performed as follows. High bind ELISA plates (Corning Costar # 3369, Acton, Mass.) were coated with 100 μL/well of 10 μg/ml of desired target antigen (R&D Systems, Minneapolis, Minn.) or desired target antigen extra-cellular domain/FC fusion protein (R&D Systems, Minneapolis, Minn.) or monoclonal mouse anti-polyhistidine antibody (R&D Systems # MAB050, Minneapolis, Minn.) in phosphate buffered saline (10×PBS, Abbott Bioresearch Center, Media Prep# MPS-073, Worcester, Mass.) overnight at 4° C. Plates were washed four times with PBS containing 0.02% Tween 20. Plates were blocked by the addition of 300 μL/well blocking solution (non-fat dry milk powder, various retail suppliers, diluted to 2% in PBS) for ½ hour at room temperature. Plates were washed four times after blocking with PBS containing 0.02% Tween 20.
(§3) Plates were washed 4 times with PBS containing 0.02% Tween 20.
(§4) One hundred microliters of enhanced TMB solution (Neogen Corp. #308177, K Blue, Lexington, Ky.) was added to each well and incubated for 10 minutes at room temperature. The reaction was stopped by the addition of 50 μL 1N sulphuric acid. Plates were read spectrophotometrically at a wavelength of 450 nm.
This is another data set of the same source. Background: An ELISA detects its analyte on a solid surface through an enzyme-linked reagent.

Experiment [4] addresses T3, Recombinant Human TRANCE/RANKL/TNFSF 11 (human, UniProt O14788 69-317).
T3 construct: extracellular domain
T3 sequence (looked up): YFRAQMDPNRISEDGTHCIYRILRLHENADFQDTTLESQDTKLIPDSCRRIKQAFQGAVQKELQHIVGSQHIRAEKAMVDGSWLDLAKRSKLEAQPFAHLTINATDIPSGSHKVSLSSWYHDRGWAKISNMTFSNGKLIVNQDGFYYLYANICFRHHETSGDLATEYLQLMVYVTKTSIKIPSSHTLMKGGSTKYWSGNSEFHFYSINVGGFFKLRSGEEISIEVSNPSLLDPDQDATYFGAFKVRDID
Kind of experiment: direct bind ELISA. The procedure: as §2, §3, §4

Experiment [5] concerns the target T3, Recombinant Human TRANCE/RANKL/TNFSF 11. Nature of the experiment: Biacore SPR. The procedure:
as §1

Experiment [6] addresses T1, Recombinant Human IL-1β. Kind of experiment: cell-based or functional assay.

The values below come from patent US20090311253A1 (AbbVie / Abbott, published 2009).

Values joined by “and” are separate entries in the source; they are usually repeats but may differ in a detail not shown here. Equal values may be shown once. Read-outs that look alike come from different tables or passages of the source.

B1: DVD374 (bispecific antibody, human IgG1, kappa)
heavy: not shown
light: EIVLTQSPDFQSVTPKEKVTITCRASQSIGSSLHWYQQKPDQSPKLLIKYASQSFSGVPSRFSGSGSGTDFTLTINSLEAEDAAAYYCHQSSSLPFTFGPGTKVDIKRTVAAPSVFIFPPDIQMTQSPSSVSASVGDRVTITCRASQGISSWLAWYQQKPGKAPKLLIYEASNLETGVPSRFSGSGSGSDFTLTISSLQPEDFATYYCQQTSSFLLSFGGGTKVEHKRTVAAPSVFIFPPSDEQLKSGTASVVCLLNNFYPREAKVQWKVDNALQSGNSQESVTEQDSKDSTYSLSSTLTLSKADYEKHKVYACEVTHQGLSSPVTKSFNRGEC
notes: vectors V1, V2
By EC50 is commonly meant the concentration giving half of the maximal effect. B1: the EC50 worked out at 6.47 nM with Recombinant Human IL-1β [1] and 8.78 nM with IL-1α.

B2: DVD382 (bispecific antibody, human IgG1, kappa)
heavy: not shown
light: B1 light
notes: vectors V1, V2
Regarding B2, the 50% effective concentration (EC50) with Recombinant Human IL-1β [1] stood at 6.52 nM; with IL-1α it was 4.61 nM.

B3: DVD379 (bispecific antibody, human IgG1, kappa)
heavy: not shown
light: DIQMTQSPSSVSASVGDRVTITCRASQGISSWLAWYQQKPGKAPKLLIYEASNLETGVPSRFSGSGSGSDFTLTISSLQPEDFATYYCQQTSSFLLSFGGGTKVEHKRTVAAPDIQMTQSPSSLSASVGDRVTITCRASGNIHNYLTWYQQTPGKAPKLLIYNAKTLADGVPSRFSGSGSGTDYTFTISSLQPEDIATYYCQHFWSIPYTFGQGTKLQITTVAAPSVFIFPPSDEQLKSGTASVVCLLNNFYPREAKVQWKVDNALQSGNSQESVTEQDSKDSTYSLSSTLTLSKADYEKHKVYACEVTHQGLSSPVTKSFNRGEC
notes: vectors V1, V2
For the molecule B3, the EC50 with Recombinant Human IL-1β [1] was determined as 150 nM.

B4: DVD378 (bispecific antibody, human IgG1, kappa)
heavy: not shown
light: EIVLTQSPDFQSVTPKEKVTITCRASQSIGSSLHWYQQKPDQSPKLLIKYASQSFSGVPSRFSGSGSGTDFTLTINSLEAEDAAAYYCHQSSSLPFTFGPGTKVDIKRTVAAPDIQMTQSPSSVSASVGDRVTITCRASQGISSWLAWYQQKPGKAPKLLIYEASNLETGVPSRFSGSGSGSDFTLTISSLQPEDFATYYCQQTSSFLLSFGGGTKVEHKRTVAAPSVFIFPPSDEQLKSGTASVVCLLNNFYPREAKVQWKVDNALQSGNSQESVTEQDSKDSTYSLSSTLTLSKADYEKHKVYACEVTHQGLSSPVTKSFNRGEC
notes: vectors V1, V2
As to B4, the EC50 is 1.89 nM with Recombinant Human IL-1β [1] and 2.86 nM in the experiment with IL-1α.

B5: AB032 (antibody, human IgG1, kappa, V domains shown)
VH: QVQLVESGGGVVQPGRSLRLSCAASGFTFSVYGMNWVRQAPGKGLEWVAIIWYDGDNQYYADSVKGRFTISRDNSKNTLYLQMNGLRAEDTAVYYCARDLRTGPFDYWGQGTLVTVSS
VL: EIVLTQSPDFQSVTPKEKVTITCRASQSIGSSLHWYQQKPDQSPKLLIKYASQSFSGVPSRFSGSGSGTDFTLTINSLEAEDAAAYYCHQSSSLPFTFGPGTKVDIKR
notes: vectors V1 and V2
What is called Kd is a measure of binding affinity in units of concentration. Take B5: in the experiment with Recombinant Human IL-1β [2], the Kd turned out to be 0.0131 nM. Besides, the concentration for a half-maximal effect (EC50) with Recombinant Human IL-1β [1] was 0.91 nM; with Recombinant Human IL-1β [3] it was 2.61 nM and 5.27 nM.

B6: DVD383 (bispecific antibody, human IgG1, kappa)
heavy: not shown
light: DIQMTQSPSSVSASVGDRVTITCRASQGISSWLAWYQQKPGKAPKLLIYEASNLETGVPSRFSGSGSGSDFTLTISSLQPEDFATYYCQQTSSFLLSFGGGTKVEHKRTVAAPSVFIFPPDIQMTQSPSSLSASVGDRVTITCRASGNIHNYLTWYQQTPGKAPKLLIYNAKTLADGVPSRFSGSGSGTDYTFTISSLQPEDIATYYCQHFWSIPYTFGQGTKLQITTVAAPSVFIFPPSDEQLKSGTASVVCLLNNFYPREAKVQWKVDNALQSGNSQESVTEQDSKDSTYSLSSTLTLSKADYEKHKVYACEVTHQGLSSPVTKSFNRGEC
notes: vectors V1, V2
In the case of B6, the EC50 in the experiment with Recombinant Human IL-1β [1] stood at 2620 nM.

B7: DVD377 (bispecific antibody, human IgG1, kappa)
heavy: not shown
light: DIQMTQSPSSVSASVGDRVTITCRASQGISSWLAWYQQKPGKAPKLLIYEASNLETGVPSRFSGSGSGSDFTLTISSLQPEDFATYYCQQTSSFLLSFGGGTKVEHKRTVAAPEIVLTQSPDFQSVTPKEKVTITCRASQSIGSSLHWYQQKPDQSPKLLIKYASQSFSGVPSRFSGSGSGTDFTLTINSLEAEDAAAYYCHQSSSLPFTFGPGTKVDIKRTVAAPSVFIFPPSDEQLKSGTASVVCLLNNFYPREAKVQWKVDNALQSGNSQESVTEQDSKDSTYSLSSTLTLSKADYEKHKVYACEVTHQGLSSPVTKSFNRGEC
notes: vectors V1, V2
As for B7, the figures for the EC50 with Recombinant Human IL-1β [1] and in the experiment with IL-1α were 165 nM and 143 nM, respectively.

B8: DVD166 (bispecific antibody, human IgG1, kappa)
heavy: not shown
light: EIVLTQSPGTLSLSPGERATLSCRASQSVRGRYLAWYQQKPGQAPRLLIYGASSRATGIPDRFSGSGSGTDFTLTISRLEPEDFAVFYCQQYGSSPRTFGQGTKVEIKRTVAAPQIVLSQSPAILSPSPGEKVTMTCRASSSVSYIHWFQQKPGSSPKPWIYATSNLASGVPVRFSGSGSGTSYSLTISRVEAEDAATYYCQQWTSNPPTFGGGTKLEIKRTVAAPSVFIFPPSDEQLKSGTASVVCLLNNFYPREAKVQWKVDNALQSGNSQESVTEQDSKDSTYSLSSTLTLSKADYEKHKVYACEVTHQGLSSPVTKSFNRGEC
notes: vectors V1, V2; also called RANKL and CD-20 DVD-Ig
As to B8, in experiment [4], the EC50 amounted to 0.12 nM.

B9: DVD381 (bispecific antibody, human IgG1, kappa)
heavy: not shown
light: DIQMTQSPSSVSASVGDRVTITCRASQGISSWLAWYQQKPGKAPKLLIYEASNLETGVPSRFSGSGSGSDFTLTISSLQPEDFATYYCQQTSSFLLSFGGGTKVEHKRTVAAPSVFIFPPEIVLTQSPDFQSVTPKEKVTITCRASQSIGSSLHWYQQKPDQSPKLLIKYASQSFSGVPSRFSGSGSGTDFTLTINSLEAEDAAAYYCHQSSSLPFTFGPGTKVDIKRTVAAPSVFIFPPSDEQLKSGTASVVCLLNNFYPREAKVQWKVDNALQSGNSQESVTEQDSKDSTYSLSSTLTLSKADYEKHKVYACEVTHQGLSSPVTKSFNRGEC
notes: vectors V1, V2
Consider B9, for which the EC50 in the experiment with Recombinant Human IL-1β [1] is 500 nM; in the experiment with IL-1α, 965 nM.

B10: DVD125 (bispecific antibody, human IgG1, kappa)
heavy: not shown
light: EIVLTQSPDFQSVTPKEKVTITCRASQSIGSSLHWYQQKPDQSPKLLIKYASQSFSGVPSRFSGSGSGTDFTLTINSLEAEDAAAYYCHQSSSLPFTFGPGTKVDIKRTVAAPEIVLTQSPGTLSLSPGERATLSCRASQSVRGRYLAWYQQKPGQAPRLLIYGASSRATGIPDRFSGSGSGTDFTLTISRLEPEDFAVFYCQQYGSSPRTFGQGTKVEIKRTVAAPSVFIFPPSDEQLKSGTASVVCLLNNFYPREAKVQWKVDNALQSGNSQESVTEQDSKDSTYSLSSTLTLSKADYEKHKVYACEVTHQGLSSPVTKSFNRGEC
notes: outer AB032, inner AB018; vectors V1, V2
One may read the koff as the rate constant with which the complex falls apart. One may read the kon as the second-order rate constant of association. B10: in experiment [5], the Kd worked out at 3.5 nM, the koff was found to be 7.45e-05 s⁻¹ and the on-rate (kon) came out at 21200 M⁻¹ s⁻¹. Besides, in the experiment with Recombinant Human IL-1β [2], the Kd is 0.0829 nM, the koff came out at 0.000107 s⁻¹ and the kon was 1.29e+06 M⁻¹ s⁻¹. Moreover, the concentration giving a half-maximal response (EC50) in experiment [4] turned out to be 2.89 nM. Moreover, the concentration giving a half-maximal response (EC50) with Recombinant Human IL-1β [3] came out at 4.36 nM. Besides, the “IL-1β Neutralization Assay EC50 (MRC5 cells, hIL-8)” value with Recombinant Human IL-1β [6] came to 0.043 nM.
